According to the DeepSol protein solubility set:

test: soluble on expression in E. coli; label from the status in PepcDB or PDB records

Soluble on expression in E. coli, not soluble:
MGSDKIHHHHHHMTRVLKVDPLFPDEKVLKEAAELLRNGEVIIFPTETVYGIGADAYNEEACKKIFKLKERPADNPLIVHIHSFKQLEEIAEGYEPHLDFLKKFWPGPLTVIFRKKSEKIPPVVTADLPTVAVRMPAHPVALKLIELFGHPIAAPSANISGRPSATNVKHVIEDFMGKVKLIIDAGDTPFGLESTIVDLTKEKPVLLRPGPVEVERLKELFPELVVPDFVRKGNFKGRPLAPGMKYRHYAPLKPLILVEDLTKMEEVLKKYPDHVVICVEERKELYDDRIVVGSLKNPYSIAQNIFSALREAEKMGKEYIIVEGFEERGILFAVMNRLRKAATEIVR, MGSDKIHHHHHHMTRYKLSAEVSFSKPSEIMGRLYILPYRDNAQKVLHFNIDHPSFCKVSINQDRFRNEHLDFKCNPSDDFSIIISYEVEVNSFSKSENEEEVFLSSSKYVNVDKFKMINVRYFSFDDLIDEVISMVRDSIRYDKNNKSVKSAFGSLIMGSGVCVNYSHVAIGILRALGIPARYVIGLIPFSTKEAHAWIEVKIGDVWFPVDPTNGIKGMQYLKWAIGRDDNDVRSKIWYSKPVSFDFSFDWNFR, MGSDKIHHHHHHMTRYQHLAGLLEQRIEQGLYQSGERLPSVRALSTEHGVSISTVQQAYHLLETRQLIMPQPRSGYFVTPRKATPPVPALTRPAQRPVEITQWESVLELVNVRLETNVLKFGSGMPDVSQPTIKPLWKEMSRLCQYQDPRVLQYDSVYGVPALREQIARLTVDCGCQLNQDDIVITTGCQEALFVAVRAVCQPGDIVAVESPAFPGTMQILRGLDIKAIEIPTDSVTGISLEALRLALDQWPVKAVLLVPSCNNPLGFIMPDARKKSLVTLAQHFDIAIIEDDAYGELAYEYPRPRAIKSFDEDGRVLLCSSFSKNLAPGLRVGWIAPGRYLERVIHTKYISTGSTVVQPQLAVAEFIRRGHYQPHLRRMRAQYKANLDIFTCWVREYFPSNICVSRPQGGFLVWIELPEYFDSLKLAREVRKAGIQIAAGSLFSASGKYRNCIRLNYANRFTEEMREGLRIVGSEVAKMMHTLPDQSAP, MGSDKIHHHHHHMTSKPSTSDGRAHSISHVPGTHMRGTSASHSPRPFRPCADCTCSPGLLSRQGRRASLFLRQLENSRRSSSMLLNELKGAGGGSSAGNGSVYSCDSLCAVNREVNTTDRLLKLRQEMKKHDLCCYIVPSCDEHQSEYVSLRDQRRAFISGFSGSAGVACITRDLLNFNDDHPDGKSILSTDGRYFNQARQELDYNWTLLRQNEDPITWQEWCVREALEMAKGLGNKEGMVLKIGIDPKLITFNDYVSFRKMIDTKYDAKGKVELVPVEENLVDSIWPDFETLPERPCNDLLLLKYEFHGEEFKDKKEKLLKKLNDKASSATTGRNTFIVVALDEICWLLNLRGSDIDYNPVFFSYVAINEDETILFTNNPFNDDISEYFKINGIEVRPYEQIWEHLTKITSQASSAEHEFLIPDSASWQMVRCLNTSTNANGAIAKKMTAQNFAIIHSPIDVLKSIKNDIEIKNAHKAQVKDAVCLVQYFAWLEQQLVGREALIDEYRAAEKLTEIRKTQRNFMGNSFETISSTGSNAAIIHYSPPVENSSMIDPTKIYLCDSGSQFLEGTTDITRTIHLTKPTKEEMDNYTLVLKGGLALERLIFPENTPGFNIDAIARQFLWSRGLDYKHGTGHGIGSFLNVHEGPMGVGFRPHLMNFPLRAGNIISNEPGYYKDGEYGIRIESDMLIKKATEKGNFLKFENMTVVPYCRKLINTKLLNEEEKTQINEYHARVWRTIVHFLQPQSISYKWLKRETSPL, MGSDKIHHHHHHMTSLFYSPLIKYRVDVLPSSELKKENINTKALVVIGDGINREKISEDLELNPLLVRIVGKDSSKEEVEYNKVVLENAWLADLAPVEEIKSIDRRSLLRGEVKKAKKVDKPIYLSEYCNGLYKACNVCEFSCPYNAIKVDKKTGVNIDYTKCTSCGLCVASCPVSAIQFPSLSQNSIFELAKVKGEKRITCYRNTKNRGVKIPCLAMLSEVDIVLLRGSGNLTFECVGCELQDNLKDFIEVIKEYNERIGGISFYSPSEKIEAKETKELNTTPQSFYNRAEARRNISDELPYILFDVSIDNNRCTLCESCVNWCPTSAIMLRRSSGVEEIDFDPMKCIGCNICVNVCPESCKLEEGKTSEIPPNIASLTKVIKVEKSKSVNKEVRKLVGDELVRCRVCGAPIGSRKSLNHVKKIMIEKGASCEDEWLERCPKHRAEYAFQKQFSFNARFKPRGDLR, MGSDKIHHHHHHMTSPVENVKKKPRPLALSPSRAGDYQQCPLLYRFRAIDRLPEPKTVAQVKGTLVHAVLEYMHKLPREEREYPAMVKQLKPTWAQMCEEDAELKELVPEDELYDFLVDSRTLLRGYFEMENPQGFDATECEMYVDTVLPNGVPVRGFIDRVDTAPTGQVRVIDYKTGKKPKPQWSQQAQFQMLFYALVYWRMFNEIPAQLRLMYLKVNDSMFLNPSREQLEFFERDLGDLWAKIEMDGKAGHFRTKTSKLCGWCPHQSLCPEYGGVPPEYPGWPGSTAD, MGSDKIHHHHHHMTSQDTADTGMADMDMTDTGMFLAKADIFASLTPEEDRAWSQLCTVESVSGGTIVLDYGIRPEIVLVVLSGALRATLRVSAGKELFLDMIGPGGTMAEMDAIRAEGYNLCLMATTDATLVRMPVDVFNDIIAQKHTVCLSLLSVLVQRMHVLHARICEFSYLDVRHRLYTTLLRLSKPSEDKPQQRTISPVIIHAALAEHVGARRETVSREMSRLVQDGVIERNRNAIVIRQPHELLRRLSQFDFA, MGSDKIHHHHHHMTSSAPLIDFAHDLRYEDIPVHVRSIVREQIIATVGSILGGAQLPVAKSFEQSILATFGRGESSAFGAGTGMSAASAALYNSGLAQLLDWEDWVLISHVGAAVVPVAWALAEERGLRLNDVIVAVTIGNEIAGRTSRAIQRGAYLGNGLPNHQIELPLVAGRLLGLDRRQLGYALGHSCYMAMENCPVGWTTDSKLLVNGLPAMWAIASANMARQDIVGRGDIVEHPAGYLATVSESIDFKELTRDIGVKWYTETLSTKKHAGCAYNLPAAECAMSIREEIAPEDVERIVVECSTATLYVGGRYDDFEPGVLDAYEQGLLTHVGLCFDTKFCVAAAYVHGDLIHEQYLVENATDARVKALYGKISLVPSERLQKAQFQDFKYGATVTVHGRDGRTATRTVEQMLGGYDRPFDHATKLADGARGLLPPEAVDGIVARLRDETGNPLASEISTLINGAP, MGSDKIHHHHHHMTTAADLSVFEQLDLPDTSLTRDTFAFAAQATPAFIHDHCVRSYVFARAHAQNQGLRAGTDYDDELLFVSCVLHDLGLSEEGSNGDQRFEVDGADIAAAFLRERGVEEERIAVAWDAIALHTSEGIASRKGTEVALAHLGIATDILGIQRESLPAGLADEVHALLPRQDLAHGFSDLIITQAVAKPHKASPTNFIGDLLRRHLPYGAYPNWYDLIDAAGWGDKPVGVTARRRAETPQQVGTLFMEYLEAGDVEGLVSLYEPNAHFVPTPGTHLVGTDAIREAMRQMVDSGARLKLEQREIRQVDDIALVSNNAILTGIGPEPVVSTTTEILRRQPDGGWVHAVDDPFFS, MGSDKIHHHHHHMTTATHPNDALFAGEKSFPVLAACEHFAGSEKLIGKAMDLQVEYGPVFDVTCDCEDGAAAGQEREHAEMVARMIASDRNVHGRAGARIHDPSHPAWRQDVDIIVNGAGGRLAYITVPKATNSGQVAEVIRYIGDVAKRAGLDKPVPVHVLIETHGALRDVFQIAELPNIEVLDFGLMDFVSGHHGAIPAAAMRSPGQFEHALLVRAKADMVAAALANGIVPAHNVCLNLKDAEVIASDACRARNEFGFLRMWSIYPAQIQPIVNAMRPDFTEVEDAAGILVAAQDADWGPIQYKGELHDRATYRYFWEVLQKAKVTGMAVPAEAERRFFVN, MGSDKIHHHHHHMTTGKKVARRKLSLLELASELDNVSKACRIMGYSRQQFYEIRRNYQTFGAEGLVDRLPGPREPHPNRVDEATEDRILAYSLEFPTHGPVRVAQQLVLQGVQVSSGGVRGVWSRNGMLTRHERLLRLERHVRDTGIALNDDQVRTLERFSPEFRERHIETRCSGDLVAVDTFFVGTLKGVGKIYLQSAIDCHSRYAFGRLYTSKLPVTAVHMLNESVLPFFEEHDTPVVTVLSDNGREFCGRPDRHPYELFLQLENIEHRTTRVRRPQSNGFVERLHRTLLDEHFRIQGRKNWYESLDEMQADLDAYLRHYNHERAHQGRNMSGRTPYQAFLDSRPEGQPKEDNEGHYAA, MGSDKIHHHHHHMTTKPERVVLIGVAGDSGCGKSTFLRRLIDLFGEEFMTVICLDDYHSLDRKQRKETGITALDPRANNFDLMYEQIKALKEGQTINKPIYNHETGLIDPPEIVKPNHIVVVEGLHPLYDERVRSLLDFSVYFDISDEVKIAWKIQRDMAERGHRYEDVLAAINSRKPDFQKYIEPQREFADVVLQVLPTNLIKDDTDRKVLRVRMLQREGKEGFEPAYLFDEGSTINWTPCGRKLTCSYPGMQLYYGSDVYYGRYVSVLEVDGQFDNLEEVIYIETHLSNTSTKYQGELTQLLLQHREYPGSNNGTGFFQVLTGLKMRAAYERLTAKEAKLAVQV, MGSDKIHHHHHHMTTQFACSGIELELFRYPSQQASNLQAWDAADEHLVKYLIDTEITATTTAILNDNFGALTCALTMQYPHSELLVETDAKTSLLGYQQNLLHNKLASTNIHWLNSRETLPQNIQLVLMKLPKNLHYFGQQLARLSTVLPAGTQILIGAKAKSINPALLASIEKNLGPASASLAWKKTRVISCISDGKKRSLAKAVSWNVDELKLTISNLANVFAANKLDIGARIMLDNMPKGEFKHIIDLGCGNGILGLHAKQCYPNAQIHFVDDSDMAIASAKHNWQANELDTPSQDLQSQDPQTEQMPQAFFHWDDCLSNLPADVEPDLVICNPPFHQGEAITDHIAWQMFVDAHKRLKKGGLLHIVGNRHLAYHVKINRIFKNCTTVASNGKFVILQAIK, MGSDKIHHHHHHMTTSITIGNFKGGVGKTTTCVTFSYLLNKAHRKTLLIDFDPQGNASEIIEKTFPVFKQKNSKSLTDGIKNLDLSESIAHVTDYLDLMPSDWSLSLLPDMLEDYKKSDRPLFLKTLLTKIRNDYDYILIDVPPTLSAYTNNAVLASDYVIMVMQTQEQSYSSSLKFVSYLQGLRKDYDKSFDLLGIIAYLVKKDGPVDHEVLKAANQAFGKALFHGNVFQRERVKRFGKSGIKDEDMWDKRALYMYQVVLDEALSRINLLEE, MGSDKIHHHHHHMTTTDTRPSPSPLQQDYQRFLLLGSRRAPYTLHVHETGYRSGTINTDALGLRYSHCAGKRFSAAEHGGASRINLLVGGSTALGIGASSDEHTVASHLSMLTGEVWLSLAGCGLNATQELMMFLTHQHRLGQLGHVVVLSGLNSLAHEALCEVLAGTNDPQHAKAYQAFLNSFSEGMQPCAPPRRQSLWRRIGQALTPPVAAPPVSWPLSPPEKRLARAADNIGRTLRQWDRLLADSHATLTFILQPLLPWCRDTLPAGEQAMLTALQQQPANFDRLLEGAFDRQLHSAFFRRIKSQADPVPCYDMNCMLDSSPVFGADLFIDRLHLNDLGNNALAKVITAKLGLAQEKHAQRKVTPIKLV
